PMC5829831, “Structural Basis for DNA Recognition by the Two-Component Response Regulator RcsB” (mBio, 2018)

Columns and labels:
[1] = target: T1, RcsB (Escherichia coli str. K-12 substr. …, UniProt P0DMC7 1-216); test: X-ray crystallography; unphosphorylated, 3.37 A; tetramer on two DNAs; EMSA: 10 mM Tris pH 7.5, 40 mM KCl, 1 mM DTT, 10 mM MgCl2, 5% glycerol, 0.1 ug/ul BSA, room temp; SPR: 10 mM Tris-HCl pH 8.3, 150 mM NaCl, 0.5 mM TCEP, 25 C; details: protein: recombinant; tags: N-terminal 6xHis (pCA24n, ASKA clone); chain copies: 2; blunt
T1 sequence: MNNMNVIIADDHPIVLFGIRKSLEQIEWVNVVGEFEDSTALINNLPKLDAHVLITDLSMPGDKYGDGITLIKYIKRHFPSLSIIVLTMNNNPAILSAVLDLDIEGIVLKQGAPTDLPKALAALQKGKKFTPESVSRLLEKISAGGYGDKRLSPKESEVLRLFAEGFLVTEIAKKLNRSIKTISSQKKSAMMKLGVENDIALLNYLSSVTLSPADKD

[2] = target: the molecule itself; test: SEC-MALS; RcsB in the presence of the 22-bp DNA duplex DNA22, with and without CPh; RcsB and DNA 1 mg/ml; Superdex 75 10/300 GL; 10 mM Tris-HCl pH 8.3, 150 mM NaCl, 0.5 mM TCEP; 22°C
[3] = target: T1, RcsB; test: SPR; no CPh; EMSA: 10 mM Tris pH 7.5, 40 mM KCl, 1 mM DTT, 10 mM MgCl2, 5% glycerol, 0.1 ug/ul BSA, room temp; SPR: 10 mM Tris-HCl pH 8.3, 150 mM NaCl, 0.5 mM TCEP, 25 C; details: protein: recombinant; tags: N-terminal 6xHis (pCA24n, ASKA clone); chain copies: 2; label: biotin (SPR); blunt

B1: DNA18 (flhDC RcsAB box) (dsDNA)
DNA 1: TTTAGGAAAAATCTTAGA
DNA 2: TCTAAGATTTTTCCTAAA
- binding result [1]: binds

B2: RcsB, two-component response regulator of the Rcs phosphorelay system (natural protein, E. coli, UniProt P0DMC7 1-216, looked up)
chain: T1 sequence
notes: RcsB from Escherichia coli, full length, REC domain, linker and HTH domain; theoretical mass of the monomer 24 kDa; In some samples carbamoyl phosphate (CPh) and MgCl2 were added to phosphorylate D56; also called RcsB* (in the presence of phosphodonor); unphosphorylated RcsB; source: purified RcsB
- stoichiometry N [2]: 2

B3: DNA22, biotinylated (dsDNA)
DNA 1: GATTTAGGAAAAATCTTAGATA
DNA 2: TATCTAAGATTTTTCCTAAATC
- Kd [3]: ~5.34 µM
